# Source: patent US20090149389A1 (PURDUE RESEARCH FOUNDATION, published 2009)
# T1: Flt3 (h) (human (h), UniProt P36888 564-993, limits assumed)
# T1 sequence (looked up): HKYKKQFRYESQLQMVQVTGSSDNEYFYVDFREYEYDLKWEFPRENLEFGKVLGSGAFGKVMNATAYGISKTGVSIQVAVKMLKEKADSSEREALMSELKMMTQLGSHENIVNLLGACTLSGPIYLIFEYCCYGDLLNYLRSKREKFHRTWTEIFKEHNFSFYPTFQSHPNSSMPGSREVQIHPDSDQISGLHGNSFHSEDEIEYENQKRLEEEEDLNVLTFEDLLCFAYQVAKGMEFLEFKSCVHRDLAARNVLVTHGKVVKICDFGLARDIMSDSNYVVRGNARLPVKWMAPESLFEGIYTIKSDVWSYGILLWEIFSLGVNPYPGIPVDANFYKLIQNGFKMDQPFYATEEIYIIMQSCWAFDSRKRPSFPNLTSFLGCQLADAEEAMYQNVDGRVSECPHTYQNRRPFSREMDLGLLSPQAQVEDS
# T2: PRAK (UniProt Q8IW41 1-473, limits assumed)
# T2 sequence (looked up): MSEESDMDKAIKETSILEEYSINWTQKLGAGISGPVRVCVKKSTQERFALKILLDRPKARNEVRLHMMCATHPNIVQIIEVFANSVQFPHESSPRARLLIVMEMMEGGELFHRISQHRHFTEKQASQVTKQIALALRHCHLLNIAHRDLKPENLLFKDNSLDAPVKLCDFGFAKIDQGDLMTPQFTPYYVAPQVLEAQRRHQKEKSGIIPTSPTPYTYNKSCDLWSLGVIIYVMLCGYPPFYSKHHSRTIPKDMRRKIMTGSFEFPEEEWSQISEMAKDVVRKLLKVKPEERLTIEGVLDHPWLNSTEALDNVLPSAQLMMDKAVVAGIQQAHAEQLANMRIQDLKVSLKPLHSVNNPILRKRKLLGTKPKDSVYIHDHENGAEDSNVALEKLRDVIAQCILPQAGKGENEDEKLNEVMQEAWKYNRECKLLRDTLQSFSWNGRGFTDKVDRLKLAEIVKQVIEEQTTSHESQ
# Legend:
# Assay in all cases: cell-based or functional assay
# Flt3 (h) = target: T1, Flt3 (h)
# L1MK1 (h) = L1MK1 (h) (human (h), UniProt P53667 285-638, limits assumed)
# Sequence of L1MK1 (h) (P53667 285-638 limits assumed): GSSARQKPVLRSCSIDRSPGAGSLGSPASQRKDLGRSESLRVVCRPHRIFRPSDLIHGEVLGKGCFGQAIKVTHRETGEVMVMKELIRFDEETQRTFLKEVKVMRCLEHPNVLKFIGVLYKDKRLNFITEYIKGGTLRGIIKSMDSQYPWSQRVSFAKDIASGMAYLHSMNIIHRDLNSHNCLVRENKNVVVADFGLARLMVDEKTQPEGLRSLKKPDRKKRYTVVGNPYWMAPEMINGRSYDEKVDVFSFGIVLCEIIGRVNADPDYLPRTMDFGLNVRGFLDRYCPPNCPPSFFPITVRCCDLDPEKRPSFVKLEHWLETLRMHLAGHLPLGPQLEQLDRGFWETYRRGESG
# MEKI (h) = MEKI (h) (human (h), UniProt Q02750 1-393)
# PRAK = target: T2, PRAK
binder,measurement,setting,value
KAFAKLAARLYRKALARQLGVAA,Profile-1 @ = 100 µm (kinase profiler assay),Flt3 (h),20
same,Profile-1 @ = 100 µm (kinase profiler assay),L1MK1 (h),93
same,Profile-1 @ = 100 µm (kinase profiler assay),MEKI (h),66
same,Profile-1 @ = 100 µm (kinase profiler assay),PRAK,148
